Test results: PMC2917185 (Nature structural & molecular biology, 2010)
Residue numbers refer to the chain shown, from its start. In names and notes the source's numbering stands. Several values for one entry are separate records, joined by “and”; a condition that tells them apart may be missing. Equal values may be shown once. Read-outs that look alike come from different tables or passages of the source.

B1: cpSRP43 ΔCD2ΔCD3 (CD1–Ank4 fragment) (domain or fragment)
chain: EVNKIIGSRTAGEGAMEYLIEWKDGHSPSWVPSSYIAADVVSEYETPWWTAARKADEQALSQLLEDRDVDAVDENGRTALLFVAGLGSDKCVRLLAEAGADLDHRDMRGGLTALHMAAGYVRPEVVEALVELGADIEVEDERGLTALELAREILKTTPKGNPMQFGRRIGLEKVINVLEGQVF
B2: cpSRP (chloroplast signal recognition particle, cpSRP43 with cpSRP54) (complex)
chain 1: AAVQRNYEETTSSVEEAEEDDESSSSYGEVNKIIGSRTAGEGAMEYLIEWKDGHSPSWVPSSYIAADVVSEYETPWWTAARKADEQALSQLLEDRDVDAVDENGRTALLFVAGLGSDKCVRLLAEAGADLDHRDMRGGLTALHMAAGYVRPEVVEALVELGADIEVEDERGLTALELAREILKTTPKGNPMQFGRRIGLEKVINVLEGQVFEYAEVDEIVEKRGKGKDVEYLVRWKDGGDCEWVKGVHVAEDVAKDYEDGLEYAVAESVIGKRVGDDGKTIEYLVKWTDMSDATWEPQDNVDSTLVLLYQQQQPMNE
chain 2: EMFGQLTGGLEAAWSKLKGEEVLTKDNIAEPMRDIRRALLEADVSLPVVRRFVQSVSDQAVGMGVIRGVKPDQQLVKIVHDELVKLMGGEVSELQFAKSGPTVILLAGLQGVGKTTVCAKLACYLKKQGKSCMLIAGDVYRPAAIDQLVILGEQVGVPVYTAGTDVKPADIAKQGLKEAKKNNVDVVIMDTAGRLQIDKGMMDELKDVKKFLNPTEVLLVVDAMTGQEAAALVTTFNVEIGITGAILTKLDGDSRGGAALSVKEVSGKPIKLVGRGERMEDLEPFYPDRMAGRILGMGDVLSFVEKATEVMRQEDAEDLQKKIMSAKFDFNDFLKQTRAVAKMGSMTRVLGMIPGMGKVSPAQIREAEKNLLVMEAMIEVMTPEERERPELLAESPERRKRIAKDSGKTEQQVSALVAQIFQMRVKMKNLMGVMEGGSIPALSGLEDALKAEQKAPPGTARRKRKADSRKKFVESASSKPGPRGFGSGN
B3: cpSRP-R161A (cpSRP assembled from cpSRP43-R161A and cpSRP54) (complex)
chain 1: B2 chain 1 with R105A
chain 2: B2 chain 2
B4: cpSRP-Y204A (cpSRP assembled from cpSRP43-Y204A and cpSRP54) (complex)
chain 1: B2 chain 1 with Y148A
chain 2: B2 chain 2

How the values were obtained:
[1] = molecular target: LHCP (light-harvesting chlorophyll a/b binding protein), fluorescein-labeled (UniProt P07371 38-269); assay: fluorescence polarisation
[2] = molecular target: LHCP (light-harvesting chlorophyll a/b binding protein), fluorescein-labeled (UniProt P07371 38-269); assay: fluorescence polarisation; remark: listed apart in the source

| Binder | Kd [1] [nM] | Kd [2] |
| --- | --- | --- |
| B1 | > 10000 | – |
| B2 | – | 76 nM and 128 nM |
| B3 | – | 1200 nM |
| B4 | – | > 5000 nM |
